One protein from publication PMC10891947, “Gene Expression of Ethanol and Acetate Metabolic Pathways in the Acinetobacter baumannii EmaSR Regulon” (Microorganisms, 2024) can be followed below.

Substrate in data set [1]: CC(=O)O
The data set is described as follows: purified protein. Particulars: pH 8.0 potassium phosphate buffer, co-substrate succinyl-CoA, one experiment.

Substrate in data set [2]: CC(C)(COP(=O)(O)OP(=O)(O)OC[C@H]1O[C@@H](n2cnc3c(N)ncnc32)[C@H](O)[C@@H]1OP(=O)(O)O)[C@@H](O)C(=O)NCCC(=O)NCCSC(=O)CCC(=O)O
The data set is described as follows: purified protein. Particulars: pH 8.0 potassium phosphate buffer, co-substrate acetate, one experiment. In kind it is biochemical, Acinetobacter baumannii.

Several values for one entry are separate records, joined by “and”; a condition that tells them apart may be missing. Identical values can stand only once.

B1: DJ41_2796 (Acinetobacter baumannii ATCC 19606 = CIP 70.34 = JCM 6841) (protein)
chain: MSLSRIRLASLHDKVISAEQAAQFIENGMTVGMSGFTRAGEAKAVPQALVELAKKNPLKITLITGASLGNDLDKQLTEAGVLSRRMPFQVDNTLRRAINNGEVMFIDQHLSETVEQMRNQQLKRPDVAVIEAIAITEDGGIIPTTSVGNSASFAIFAEKVIVEINTSLSESFEGLHDIYIPTYRPTRTPIPLTKVDERIGTTAIQIDPSRIVGIVFNDTHDSPSTVTPPDDETQGIANHLIAFFEKEVAEGRLPKNLGPLQAGIGSIANAVLTGLKDSNFEDLIMYSEVLQDCTFELIDAGKMKFASGSSITLSAKCGEKVFGNIEAYKDKLVLRPQEISNHPELVRRLGIIGINTALEFDIYGNVNSTHVCGTKMMNGIGGSGDFARNAHLAIFVTKSIAKGGDISSIVPMVSHVDHSEHDVDILVTEQGLADLRGLAPRERARAIIDNCVHPLYRDALNDYFDRACAKGGHTPHLLREALSWHANFEETGQMLQPTPVAKSA
The term Km denotes the concentration of substrate that gives half-maximal velocity. One may read the Vmax as the top rate of the reaction or transport when substrate is in excess. What is called kcat is the number of substrate molecules converted per active site and unit of time at saturation. A word on the kcat/Km: it is the second-order rate constant that governs catalysis at low substrate concentration. With B1, in data set [1], the Km was 14.74 mM and 39 mM; the Vmax is 0.0335 µmol/min and 0.0415 µmol/min; the kcat was 6.7 s⁻¹ and 8.31 s⁻¹; the kcat/Km was 455 M⁻¹ s⁻¹ and 213 M⁻¹ s⁻¹. For the same protein, in data set [2], the Km is given as 0.3418 mM, the Vmax is 0.035 µmol/min, the kcat came to 6.99 s⁻¹ and the kcat/Km turned out to be 20500 M⁻¹ s⁻¹.
